These results are taken from patent publication US20260001928A1 (CORTERIA PHARMACEUTICALS, priority 2022, published 2026).

Test [1] has as its target T1, CRF1R receptor (UniProt P34998 24-415, limits assumed).
T1 sequence (looked up): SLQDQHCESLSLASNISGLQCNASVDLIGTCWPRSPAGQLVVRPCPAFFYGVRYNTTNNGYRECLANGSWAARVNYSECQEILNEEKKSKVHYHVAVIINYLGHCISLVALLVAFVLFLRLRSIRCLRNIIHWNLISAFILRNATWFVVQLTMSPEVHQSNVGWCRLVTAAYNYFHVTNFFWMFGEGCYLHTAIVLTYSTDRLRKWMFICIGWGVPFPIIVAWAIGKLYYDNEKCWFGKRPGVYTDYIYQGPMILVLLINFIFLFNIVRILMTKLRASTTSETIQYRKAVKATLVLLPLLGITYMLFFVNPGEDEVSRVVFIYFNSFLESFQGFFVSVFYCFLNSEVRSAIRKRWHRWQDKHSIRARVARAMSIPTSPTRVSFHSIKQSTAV
Put plainly: cell-based or functional assay.

For test [2], the target named is human corticotropin-releasing factor 2a (CRF2a receptor) (human), Q13324. The test is described as follows: cell-based or functional assay.

*1 amine or outer side, *2 acyl side, *3 side chain or, on linkers, in order; H or OH if unused. Where no end group is shown, it is not given here. Side-chain parts run from the residue outwards. [ ]: non-standard residue; d: D form. The star is where a group is joined. C16 diacid = O=C(O)CCCCCCCCCCCCCCC(=O)*; γGlu = O=C(O)[C@H](CCC(=O)[*:2])N[*:1]; NMeV = CN[C@H](C(=O)O)C(C)C; Api = NC1(C(=O)O)CCNCC1; Pentanoyl = CCCCC(=O)*; Aib = CC(C)(N)C(=O)O

Sequence of human corticotropin-releasing factor 2a (CRF2a receptor) (human), Q13324 (Q13324 20-411): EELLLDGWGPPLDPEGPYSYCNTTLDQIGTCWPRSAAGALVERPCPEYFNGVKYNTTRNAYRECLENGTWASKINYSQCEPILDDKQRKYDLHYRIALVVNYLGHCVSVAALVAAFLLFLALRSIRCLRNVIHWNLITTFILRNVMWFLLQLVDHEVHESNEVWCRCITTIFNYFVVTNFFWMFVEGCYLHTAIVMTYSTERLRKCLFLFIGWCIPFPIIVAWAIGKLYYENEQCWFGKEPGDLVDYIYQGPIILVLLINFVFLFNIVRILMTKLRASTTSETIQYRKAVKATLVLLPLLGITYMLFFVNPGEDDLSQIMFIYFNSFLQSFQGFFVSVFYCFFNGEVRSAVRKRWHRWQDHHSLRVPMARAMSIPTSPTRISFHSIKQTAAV

B1: SEQ ID NO 164 (peptide)
peptide: Ac-IVLSLD[dV]PIKLK([γGlu-C16 diacid])AILLEQEKQKKQREQAETN[Aib]QILAQV-NH2
SMILES: CC[C@H](C)[C@H](NC(C)=O)C(=O)N[C@H](C(=O)N[C@@H](CC(C)C)C(=O)N[C@@H](CO)C(=O)N[C@@H](CC(C)C)C(=O)N[C@@H](CC(=O)O)C(=O)N[C@@H](C(=O)N1CCC[C@H]1C(=O)N[C@H](C(=O)N[C@@H](CCCCN)C(=O)N[C@@H](CC(C)C)C(=O)N[C@@H](CCCCNC(=O)CC[C@H](NC(=O)CCCCCCCCCCCCCCC(=O)O)C(=O)O)C(=O)N[C@@H](C)C(=O)N[C@H](C(=O)N[C@@H](CC(C)C)C(=O)N[C@@H](CC(C)C)C(=O)N[C@@H](CCC(=O)O)C(=O)N[C@@H](CCC(N)=O)C(=O)N[C@@H](CCC(=O)O)C(=O)N[C@@H](CCCCN)C(=O)N[C@@H](CCC(N)=O)C(=O)N[C@@H](CCCCN)C(=O)N[C@@H](CCCCN)C(=O)N[C@@H](CCC(N)=O)C(=O)N[C@@H](CCCNC(=N)N)C(=O)N[C@@H](CCC(=O)O)C(=O)N[C@@H](CCC(N)=O)C(=O)N[C@@H](C)C(=O)N[C@@H](CCC(=O)O)C(=O)N[C@H](C(=O)N[C@@H](CC(N)=O)C(=O)NC(C)(C)C(=O)N[C@@H](CCC(N)=O)C(=O)N[C@H](C(=O)N[C@@H](CC(C)C)C(=O)N[C@@H](C)C(=O)N[C@@H](CCC(N)=O)C(=O)N[C@H](C(N)=O)C(C)C)[C@@H](C)CC)[C@@H](C)O)[C@@H](C)CC)[C@@H](C)CC)C(C)C)C(C)C
With B1, the “Emax (% I)” value in test [1] turned out to be 14%. For the same molecule, the EC50 [nM] (cAMP) in test [2] was 2.43 nM.

B2: SEQ ID NO 159 (peptide)
peptide: [NMeV]LSLD[dV]PIKLK([γGlu-C16 diacid])KILLEQEKQKKQREQAETN[Aib]QILAQV-NH2
modifications: N-terminus assumed
SMILES: CC[C@H](C)[C@H](NC(=O)[C@H](CCC(N)=O)NC(=O)C(C)(C)NC(=O)[C@H](CC(N)=O)NC(=O)[C@@H](NC(=O)[C@H](CCC(=O)O)NC(=O)[C@H](C)NC(=O)[C@H](CCC(N)=O)NC(=O)[C@H](CCC(=O)O)NC(=O)[C@H](CCCNC(=N)N)NC(=O)[C@H](CCC(N)=O)NC(=O)[C@H](CCCCN)NC(=O)[C@H](CCCCN)NC(=O)[C@H](CCC(N)=O)NC(=O)[C@H](CCCCN)NC(=O)[C@H](CCC(=O)O)NC(=O)[C@H](CCC(N)=O)NC(=O)[C@H](CCC(=O)O)NC(=O)[C@H](CC(C)C)NC(=O)[C@H](CC(C)C)NC(=O)[C@@H](NC(=O)[C@H](CCCCN)NC(=O)[C@H](CCCCNC(=O)CC[C@H](NC(=O)CCCCCCCCCCCCCCC(=O)O)C(=O)O)NC(=O)[C@H](CC(C)C)NC(=O)[C@H](CCCCN)NC(=O)[C@@H](NC(=O)[C@@H]1CCCN1C(=O)[C@H](NC(=O)[C@H](CC(=O)O)NC(=O)[C@H](CC(C)C)NC(=O)[C@H](CO)NC(=O)[C@H](CC(C)C)NC(=O)[C@@H](NC)C(C)C)C(C)C)[C@@H](C)CC)[C@@H](C)CC)[C@@H](C)O)C(=O)N[C@@H](CC(C)C)C(=O)N[C@@H](C)C(=O)N[C@@H](CCC(N)=O)C(=O)N[C@H](C(N)=O)C(C)C
On to B2, for which the “Emax (% I)” value in test [1] worked out at 4%. The molecule also gave an EC50 [nM] (cAMP) in test [2] of 2.97 nM.

B3: SEQ ID NO 161 (peptide)
peptide: Ac-IVLSLD[dV]PIKLK([γGlu-C16 diacid])KILLEQEKQKAQREQAETN[Aib]QILAQV-NH2
SMILES: CC[C@H](C)[C@H](NC(C)=O)C(=O)N[C@H](C(=O)N[C@@H](CC(C)C)C(=O)N[C@@H](CO)C(=O)N[C@@H](CC(C)C)C(=O)N[C@@H](CC(=O)O)C(=O)N[C@@H](C(=O)N1CCC[C@H]1C(=O)N[C@H](C(=O)N[C@@H](CCCCN)C(=O)N[C@@H](CC(C)C)C(=O)N[C@@H](CCCCNC(=O)CC[C@H](NC(=O)CCCCCCCCCCCCCCC(=O)O)C(=O)O)C(=O)N[C@@H](CCCCN)C(=O)N[C@H](C(=O)N[C@@H](CC(C)C)C(=O)N[C@@H](CC(C)C)C(=O)N[C@@H](CCC(=O)O)C(=O)N[C@@H](CCC(N)=O)C(=O)N[C@@H](CCC(=O)O)C(=O)N[C@@H](CCCCN)C(=O)N[C@@H](CCC(N)=O)C(=O)N[C@@H](CCCCN)C(=O)N[C@@H](C)C(=O)N[C@@H](CCC(N)=O)C(=O)N[C@@H](CCCNC(=N)N)C(=O)N[C@@H](CCC(=O)O)C(=O)N[C@@H](CCC(N)=O)C(=O)N[C@@H](C)C(=O)N[C@@H](CCC(=O)O)C(=O)N[C@H](C(=O)N[C@@H](CC(N)=O)C(=O)NC(C)(C)C(=O)N[C@@H](CCC(N)=O)C(=O)N[C@H](C(=O)N[C@@H](CC(C)C)C(=O)N[C@@H](C)C(=O)N[C@@H](CCC(N)=O)C(=O)N[C@H](C(N)=O)C(C)C)[C@@H](C)CC)[C@@H](C)O)[C@@H](C)CC)[C@@H](C)CC)C(C)C)C(C)C
Turning to B3, the “Emax (% I)” value in test [1] came out at 3%. The EC50 [nM] (cAMP) in test [2] was determined as 0.32 nM.

B4: SEQ ID NO 8 (peptide)
peptide: Pentanoyl-VLSLD[dV]PIKLK([γGlu-C16 diacid])QILLKQERQKKQREQAEKNKQILEQV-NH2
SMILES: CCCCC(=O)N[C@H](C(=O)N[C@@H](CC(C)C)C(=O)N[C@@H](CO)C(=O)N[C@@H](CC(C)C)C(=O)N[C@@H](CC(=O)O)C(=O)N[C@@H](C(=O)N1CCC[C@H]1C(=O)N[C@H](C(=O)N[C@@H](CCCCN)C(=O)N[C@@H](CC(C)C)C(=O)N[C@@H](CCCCNC(=O)CC[C@H](NC(=O)CCCCCCCCCCCCCCC(=O)O)C(=O)O)C(=O)N[C@@H](CCC(N)=O)C(=O)N[C@H](C(=O)N[C@@H](CC(C)C)C(=O)N[C@@H](CC(C)C)C(=O)N[C@@H](CCCCN)C(=O)N[C@@H](CCC(N)=O)C(=O)N[C@@H](CCC(=O)O)C(=O)N[C@@H](CCCNC(=N)N)C(=O)N[C@@H](CCC(N)=O)C(=O)N[C@@H](CCCCN)C(=O)N[C@@H](CCCCN)C(=O)N[C@@H](CCC(N)=O)C(=O)N[C@@H](CCCNC(=N)N)C(=O)N[C@@H](CCC(=O)O)C(=O)N[C@@H](CCC(N)=O)C(=O)N[C@@H](C)C(=O)N[C@@H](CCC(=O)O)C(=O)N[C@@H](CCCCN)C(=O)N[C@@H](CC(N)=O)C(=O)N[C@@H](CCCCN)C(=O)N[C@@H](CCC(N)=O)C(=O)N[C@H](C(=O)N[C@@H](CC(C)C)C(=O)N[C@@H](CCC(=O)O)C(=O)N[C@@H](CCC(N)=O)C(=O)N[C@H](C(N)=O)C(C)C)[C@@H](C)CC)[C@@H](C)CC)[C@@H](C)CC)C(C)C)C(C)C
On to B4, for which, in test [1], the “EC50” value was determined as 186 nM and the “Emax (% I)” value came out at 50%. Further, the EC50 [nM] (cAMP) in test [2] stood at 0.14 nM.
In the case of Ac-IVLSLD[dV]PIKLK([γGlu-C16 diacid])KILLEQEKQK[Aib]QREQAETN[Aib]QILAQV-NH2 [SEQ ID NO 162], the “Emax (% I)” value in test [1] is 0%. The molecule also came in with an EC50 [nM] (cAMP) in test [2] of 0.49 nM.

B5: SEQ ID NO 163 (peptide)
peptide: Ac-IVLSLD[dV]PIALK([γGlu-C16 diacid])KILLEQEKQKKQREQAETN[Aib]QILAQV-NH2
SMILES: CC[C@H](C)[C@H](NC(C)=O)C(=O)N[C@H](C(=O)N[C@@H](CC(C)C)C(=O)N[C@@H](CO)C(=O)N[C@@H](CC(C)C)C(=O)N[C@@H](CC(=O)O)C(=O)N[C@@H](C(=O)N1CCC[C@H]1C(=O)N[C@H](C(=O)N[C@@H](C)C(=O)N[C@@H](CC(C)C)C(=O)N[C@@H](CCCCNC(=O)CC[C@H](NC(=O)CCCCCCCCCCCCCCC(=O)O)C(=O)O)C(=O)N[C@@H](CCCCN)C(=O)N[C@H](C(=O)N[C@@H](CC(C)C)C(=O)N[C@@H](CC(C)C)C(=O)N[C@@H](CCC(=O)O)C(=O)N[C@@H](CCC(N)=O)C(=O)N[C@@H](CCC(=O)O)C(=O)N[C@@H](CCCCN)C(=O)N[C@@H](CCC(N)=O)C(=O)N[C@@H](CCCCN)C(=O)N[C@@H](CCCCN)C(=O)N[C@@H](CCC(N)=O)C(=O)N[C@@H](CCCNC(=N)N)C(=O)N[C@@H](CCC(=O)O)C(=O)N[C@@H](CCC(N)=O)C(=O)N[C@@H](C)C(=O)N[C@@H](CCC(=O)O)C(=O)N[C@H](C(=O)N[C@@H](CC(N)=O)C(=O)NC(C)(C)C(=O)N[C@@H](CCC(N)=O)C(=O)N[C@H](C(=O)N[C@@H](CC(C)C)C(=O)N[C@@H](C)C(=O)N[C@@H](CCC(N)=O)C(=O)N[C@H](C(N)=O)C(C)C)[C@@H](C)CC)[C@@H](C)O)[C@@H](C)CC)[C@@H](C)CC)C(C)C)C(C)C
For B5, in test [1], the “EC50” value came to 190 nM and the “Emax (% I)” value worked out at 53%. This molecule returned an EC50 [nM] (cAMP) in test [2] of 0.3 nM.

B6: SEQ ID NO 160 (peptide)
peptide: [NMeV]LSLD[dV]PIKLK([γGlu-C16 diacid])KILLEQEKQKKQREQAETN[Api]QILAQV-NH2
modifications: N-terminus assumed
SMILES: CC[C@H](C)[C@H](NC(=O)[C@H](CCC(N)=O)NC(=O)C1(NC(=O)[C@H](CC(N)=O)NC(=O)[C@@H](NC(=O)[C@H](CCC(=O)O)NC(=O)[C@H](C)NC(=O)[C@H](CCC(N)=O)NC(=O)[C@H](CCC(=O)O)NC(=O)[C@H](CCCNC(=N)N)NC(=O)[C@H](CCC(N)=O)NC(=O)[C@H](CCCCN)NC(=O)[C@H](CCCCN)NC(=O)[C@H](CCC(N)=O)NC(=O)[C@H](CCCCN)NC(=O)[C@H](CCC(=O)O)NC(=O)[C@H](CCC(N)=O)NC(=O)[C@H](CCC(=O)O)NC(=O)[C@H](CC(C)C)NC(=O)[C@H](CC(C)C)NC(=O)[C@@H](NC(=O)[C@H](CCCCN)NC(=O)[C@H](CCCCNC(=O)CC[C@H](NC(=O)CCCCCCCCCCCCCCC(=O)O)C(=O)O)NC(=O)[C@H](CC(C)C)NC(=O)[C@H](CCCCN)NC(=O)[C@@H](NC(=O)[C@@H]2CCCN2C(=O)[C@H](NC(=O)[C@H](CC(=O)O)NC(=O)[C@H](CC(C)C)NC(=O)[C@H](CO)NC(=O)[C@H](CC(C)C)NC(=O)[C@@H](NC)C(C)C)C(C)C)[C@@H](C)CC)[C@@H](C)CC)[C@@H](C)O)CCNCC1)C(=O)N[C@@H](CC(C)C)C(=O)N[C@@H](C)C(=O)N[C@@H](CCC(N)=O)C(=O)N[C@H](C(N)=O)C(C)C
Consider B6, for which, in test [1], the “Emax (% I)” value came out at 2%. The molecule further showed an EC50 [nM] (cAMP) in test [2] of 2.08 nM.

Broadly, the EC50 is the concentration that produces a half-maximal response. A low value points to higher potency in that assay.
